Tests used:
[1] = system: Monocrotaline (MCT) induced pulmonary hypertension (PH) in C57BL/6 mice; assay: Right heart catheterization in MCT induced PH mouse model (Example 4); format: in vivo; settings: for pressure values in the right ventricle, RVPsys (result in words): in contrast to KSF containing control immunocytokines
Source text: To induce Pulmonary Hypertension (PH), C57BL/6 mice (bodyweight: 25-30 g) were used. The animals were obtained from ZET facility (Zentrale Experimentelle Tierhaltung) of the University Hospital Jena (UKJ, Jena, Germany). Prior to PH induction, mice were allowed to acclimatize for at least 7 days with ad libitum access to food and water as well as controlled light/dark cycles. In this set of experiments, 50 animals were investigated divided into the following 7 experimental groups: • sham induced controls (n=10) • MCT induced PH (n=8) • MCT induced PH+MACI (n=8) • MCT induced PH+F8mIL9F8 in CrAb format (n=6) • MCT induced PH+KSFmIL9KSF in CrAb format (n=6) • MCT induced PH+F8_(IgG-HC4)-mIL9 (n=6) • MCT induced PH+KSF_(IgG-HC4)-mIL9 (n=6)
For PH induction, the Monocrotaline (MCT, Carl Roth, Germany) method was used.
The sham induced controls were injected with 30 μl NaCl not containing MCT at day 1 (single dose; intraperitoneally, i.p.). […] The other 6 experimental groups were injected with MCT (single dose; intraperitoneally, i.p.; 60 mg/kg body weight; volume 30 μl). Animals in the MCT induced PH+MACI group received the drug (Macitentan, Actelion Pharmaceuticals Ltd.) from day 14 to day 28 (once daily; per os; 15 mg/kg body weight).
Animals in the MCT induced PH+F8mIL9F8 in CrAb format group received F8mIL9F8 3 times on days 14, 16 and 18 (intravenously, i.v.; 200 μg/injection; volume 154 μl). Animals in the MCT induced PH+KSFmIL9KSF in CrAb format group received KSFmIL9KSF 3 times on days 14, 16 and 18 (intravenously, i.v.; 198 μg/injection; volume 182 μl).
Animals in the MCT induced PH+F8_(IgG-HC4)-mIL9 group received F8_(IgG-HC4)-mIL9 3 times on days 14, 16 and 18 (intravenously, i.v.; 261 μg/injection; volume 137 μl). Animals in the MCT induced PH+KSF_(IgG-HC4)-mIL9 group received KSF_IgG-HC4mIL9 3 times on days 14, 16 and 18 (intravenously, i.v.; 258 μg/injection; volume 161 μl).
On day 28 after MCT injection, mice of all experimental groups were deeply anesthetized with a single dose of 100 mg/kg body weight ketamine and 10 mg/kg body weight Xylazin in approximately 60 μl each administered i.p.
Right heart catheterization using a 1.4 F micro conductance pressure-volume catheter (Model SPR-839; Millar Instruments Inc; PowerLab system, ADInstruments Ltd., Oxford, UK) was performed via the right vena jugularis interna to measure the systolic right ventricular pressure and thereby verify the success of the experimental setting. Mice were then sacrificed in deep anesthesia and analgesia to carry out cardiac blood collection after thoracotomy and to harvest the organs.
(§1) Statistical analyses were performed using IBM SPSS statistical software, version 25.0 (IBM SPSS Statistics for Windows. Armonk, N.Y., USA). Data are expressed as mean±standard deviation. […]

[2] = system: Monocrotaline (MCT) induced pulmonary hypertension (PH) in C57BL/6 mice; assay: Echocardiographic assessment in MCT induced PH mouse model (Example 4); format: in vivo; settings: in contrast to KSF containing control immunocytokines
Description: To induce Pulmonary Hypertension (PH), C57BL/6 mice (bodyweight: 25-30 g) were used. The animals were obtained from ZET facility (Zentrale Experimentelle Tierhaltung) of the University Hospital Jena (UKJ, Jena, Germany). Prior to PH induction, mice were allowed to acclimatize for at least 7 days with ad libitum access to food and water as well as controlled light/dark cycles. […]
Echocardiographic assessment was performed on day 28 using the Vevo 770 Rodent-Ultrasound-System, Visual Sonic, Canada, 17 MHz probe RMV176. […] Body temperature and respiratory rate were continuously monitored. All surrogate parameters of right ventricular (RV) morphology and function were assessed, among others, RV basal and medial diameters (in mm), RV length (in mm), tricuspid annular plane systolic excursion (TAPSE, in mm), right atrial area (RA area, in mm^2) or main pulmonary artery diameter (MPA, in mm).
as §1

[3] = target: T1, recombinant fibronectin 11A12 domain (EDA) (Homo sapiens, UniProt P02751); assay: Biacore surface plasmon resonance binding analysis; settings: SPR, BIAcore X100, CM5 chip coated with recombinant fibronectin 11A12 domain
T1 construct: recombinant fibronectin 11A12 domain
T1 sequence (P02751 1629-1905 limits assumed): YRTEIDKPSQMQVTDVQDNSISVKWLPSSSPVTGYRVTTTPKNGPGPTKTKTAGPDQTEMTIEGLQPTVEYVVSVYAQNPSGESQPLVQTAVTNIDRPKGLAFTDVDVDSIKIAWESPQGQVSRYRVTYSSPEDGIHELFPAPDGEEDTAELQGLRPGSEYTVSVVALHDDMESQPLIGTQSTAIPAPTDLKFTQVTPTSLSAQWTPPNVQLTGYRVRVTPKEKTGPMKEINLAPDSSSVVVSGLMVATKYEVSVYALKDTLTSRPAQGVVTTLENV
Description: Binding affinity was determined by surface plasmon resonance using a BIAcore X100 instrument using a CM5 chip coated with recombinant fibronectin 11A12 domain. Samples were injected as serial-dilution, using a concentration range from […] to 125 nM.

Molecule | apparent KD [3] | also measured
F8(IgG4-HC)-mIL9: two murine IL9 moieties fused to C-termini of heavy chains of F8 IgG4; SEQ ID NOs: 61 and 62 |  | treatment effects relative to MACI (result in words) [1]: improved compared with the effects achieved by MACI; pressure values in the right ventricle, RVPsys (result in words) ([1]; listed as F8_(IgG-HC4)-mIL9): significantly reduced; pressure values in the right ventricle, RVPsys (result in words) ([1]; listed as IgG-HC4mIL9): significantly reduce; echocardiographic signs of right ventricular load and dysfunction (result in words) [2]: significantly improved a variety
F8(db)-hIL9: human IL9 conjugated to the C-terminus of the F8 diabody; SEQ ID NO: 22 | in the nM range | 
F8(scFv)-hIL9-F8(scFv): human IL9 conjugated at N- and C-terminus to an F8 scFv, CrAb format; SEQ ID NO: 18 | in the nM range | 
hIL9-F8(db): human IL9 conjugated to the N-terminus of the F8 diabody; SEQ ID NO: 23 | in the nM range | 
F8(db)-mIL9: murine IL9 conjugated to the C-terminus of the F8 diabody; SEQ ID NO: 20 (protein, of murine IL9 conjugated to the C-terminus of the F8 diabody (F8(Db)-mIL9)) EVQLLESGGGLVQPGGSLRLSCAASGFTFSLFTMSWVRQAPGKGLEWVSAISGSGGSTYYADSVKGRFTISRDNSKNTLYLQMNSLRAEDTAVYYCAKSTHLYLFDYWGQGTLVTVSSGGSGGEIVLTQSPGTLSLSPGERATLSCRASQSVSMPFLAWYQQKPGQAPRLLIYGASSRATGIPDRFSGSGSGTDFTLTISRLEPEDFAVYYCQQMRGRPPTFGQGTKVEIKGGGGSGGGGSGGGGSQRCSTTWGIRDTNYLIENLKDDPPSKCSCSGNVTSCLCLSVPTDDCTTPCYREGLLQLTNATQKSRLLPVFHRVKRIVEVLKNITCPSFSCEKPCNQTMAGNTLSFLKSLLGTFQKTEMQRQKSRP | in the nM range | 
mIL9-F8(db): murine IL9 conjugated to the N-terminus of the F8 diabody; SEQ ID NO: 21 (protein, murine IL9 conjugated to the N-terminus of the F8 diabody (mIL9-F8(Db))) QRCSTTWGIRDTNYLIENLKDDPPSKCSCSGNVTSCLCLSVPTDDCTTPCYREGLLQLTNATQKSRLLPVFHRVKRIVEVLKNITCPSFSCEKPCNQTMAGNTLSFLKSLLGTFQKTEMQRQKSRPGGGGSGGGGSGGGGSEVQLLESGGGLVQPGGSLRLSCAASGFTFSLFTMSWVRQAPGKGLEWVSAISGSGGSTYYADSVKGRFTISRDNSKNTLYLQMNSLRAEDTAVYYCAKSTHLYLFDYWGQGTLVTVSSGGSGGEIVLTQSPGTLSLSPGERATLSCRASQSVSMPFLAWYQQKPGQAPRLLIYGASSRATGIPDRFSGSGSGTDFTLTISRLEPEDFAVYYCQQMRGRPPTFGQGTKVEIK | in the nM range | 

Source: US20230285585A1, “TREATMENT OF PULMONARY HYPERTENSION” (PHILOGEN S.P.A., priority 2020, published 2023)
